Measured values as given in publication PMC9289529, “Varicella‐Zoster virus ORF9 is an antagonist of the DNA sensor cGAS”.

Key:
[1] = target: T1, ORF9 (phase separation preparation) (Varicella-zoster virus, UniProt Q4JQW6 1-302); test: phase separation microscopy; no cGAS; smaller droplets than cGAS-DNA; Binding buffers for pull-down, EMSA and phase separation not in the material; phase separation tested at varied NaCl/KCl up to 300 mM or more; conditions: protein: recombinant; tags: 6xHis-SUMO2 removed by SENP2; blunt
T1 sequence: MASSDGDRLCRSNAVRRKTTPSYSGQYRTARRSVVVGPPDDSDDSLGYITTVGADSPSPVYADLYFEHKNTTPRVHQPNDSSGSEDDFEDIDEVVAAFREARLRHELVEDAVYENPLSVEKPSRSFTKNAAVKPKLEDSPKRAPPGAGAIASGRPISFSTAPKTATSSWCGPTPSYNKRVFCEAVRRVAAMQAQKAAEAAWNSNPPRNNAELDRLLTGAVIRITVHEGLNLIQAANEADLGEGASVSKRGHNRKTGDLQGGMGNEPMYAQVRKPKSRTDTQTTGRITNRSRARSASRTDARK

[2] = target: T2, hcGAS (human, UniProt Q8N884 1-522); test: phase separation microscopy; droplets sensitive to salt >250 mM; none at 300 mM NaCl/KCl; Binding buffers for pull-down, EMSA and phase separation not in the material; phase separation tested at varied NaCl/KCl up to 300 mM or more; conditions: protein: recombinant; tags: 6xHis-SUMO2 construct (pET); blunt
[3] = target: hcGAS;ORF9 (phase separation preparation) (human;Varicella-zoster virus, UniProt Q8N884;Q4JQW6 1-522;1-302, |); test: phase separation microscopy; 3-fold molar excess ORF9; larger droplets, also formed at 300 mM NaCl/KCl; Binding buffers for pull-down, EMSA and phase separation not in the material; phase separation tested at varied NaCl/KCl up to 300 mM or more; conditions: protein: recombinant;recombinant; tags: 6xHis-SUMO2 construct (pET);6xHis-SUMO2 removed by SENP2; blunt
[4] = target: cGAS (pull-down preparation) (human, UniProt Q8N884 1-522); test: pull-down; Binding buffers for pull-down, EMSA and phase separation not in the material; phase separation tested at varied NaCl/KCl up to 300 mM or more; conditions: protein: recombinant; tags: GST cleaved by PreScission; label: biotin; blunt
[5] = target: T3, ORF9 (FLAG-ORF9) (Varicella-zoster virus, UniProt Q4JQW6 1-302); test: pull-down; conditions: protein: recombinant; tags: N-terminal FLAG (GST cleaved by PreScission); label: biotin; blunt
T3 sequence: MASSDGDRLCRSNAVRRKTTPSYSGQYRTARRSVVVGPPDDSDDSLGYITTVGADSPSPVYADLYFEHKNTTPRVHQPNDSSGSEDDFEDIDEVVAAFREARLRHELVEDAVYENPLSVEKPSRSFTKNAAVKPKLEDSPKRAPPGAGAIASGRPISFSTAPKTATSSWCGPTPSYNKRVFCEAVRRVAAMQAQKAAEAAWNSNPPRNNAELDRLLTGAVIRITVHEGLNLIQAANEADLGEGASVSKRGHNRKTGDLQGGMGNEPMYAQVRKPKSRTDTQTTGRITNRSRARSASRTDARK

[6] = target: T2, hcGAS; test: EMSA (agarose); high-molecular-weight complexes; Binding buffers for pull-down, EMSA and phase separation not in the material; phase separation tested at varied NaCl/KCl up to 300 mM or more; conditions: protein: recombinant; tags: 6xHis-SUMO2 construct (pET); blunt
[7] = target: T4, ORF9 (EMSA preparation) (Varicella-zoster virus, UniProt Q4JQW6 1-302); test: EMSA (agarose); Binding buffers for pull-down, EMSA and phase separation not in the material; phase separation tested at varied NaCl/KCl up to 300 mM or more; conditions: protein: recombinant; tags: N-terminal FLAG (pET28a, Ni-NTA purified); blunt
T4 sequence: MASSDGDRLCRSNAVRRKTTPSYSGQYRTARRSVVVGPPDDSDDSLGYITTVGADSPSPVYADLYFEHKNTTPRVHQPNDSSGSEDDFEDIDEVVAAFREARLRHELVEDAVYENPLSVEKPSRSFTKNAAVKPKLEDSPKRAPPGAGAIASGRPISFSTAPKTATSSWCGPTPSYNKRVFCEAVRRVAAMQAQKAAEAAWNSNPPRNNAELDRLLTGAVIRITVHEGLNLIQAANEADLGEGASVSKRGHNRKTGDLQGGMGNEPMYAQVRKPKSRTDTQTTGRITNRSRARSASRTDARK

[8] = target: hcGAS;ORF9 (EMSA preparation) (human;Varicella-zoster virus, UniProt Q8N884;Q4JQW6 1-522;1-302, |); test: EMSA (agarose); increasing ORF9 enlarges cGAS-DNA complexes; Binding buffers for pull-down, EMSA and phase separation not in the material; phase separation tested at varied NaCl/KCl up to 300 mM or more; conditions: protein: recombinant;recombinant; tags: 6xHis-SUMO2 construct (pET);N-terminal FLAG (pET28a, Ni-NTA purified); blunt
hcGAS;ORF9 (EMSA preparation), sequence (Q8N884 whole entry, one chain of several): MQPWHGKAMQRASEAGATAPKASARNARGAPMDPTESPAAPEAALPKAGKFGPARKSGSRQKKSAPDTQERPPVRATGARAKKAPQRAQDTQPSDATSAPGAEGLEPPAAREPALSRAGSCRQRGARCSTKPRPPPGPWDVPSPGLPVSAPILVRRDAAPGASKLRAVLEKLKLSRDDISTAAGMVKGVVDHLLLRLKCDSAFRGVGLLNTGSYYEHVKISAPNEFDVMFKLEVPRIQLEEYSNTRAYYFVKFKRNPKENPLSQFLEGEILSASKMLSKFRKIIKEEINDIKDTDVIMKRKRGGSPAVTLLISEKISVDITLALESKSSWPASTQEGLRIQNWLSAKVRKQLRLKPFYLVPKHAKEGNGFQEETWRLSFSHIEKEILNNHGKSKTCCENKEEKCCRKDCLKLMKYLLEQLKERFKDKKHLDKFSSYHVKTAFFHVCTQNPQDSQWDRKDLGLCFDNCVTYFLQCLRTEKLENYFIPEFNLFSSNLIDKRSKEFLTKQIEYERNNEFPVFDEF

T2 sequence (Q8N884 whole entry): as the sequence (Q8N884 whole entry, one chain of several) above
hcGAS;ORF9 (phase separation preparation), sequence (Q8N884 whole entry, one chain of several): as above
cGAS (pull-down preparation), sequence (Q8N884 whole entry): as the sequence (Q8N884 whole entry, one chain of several) above

B1: 100 bp ISD (dsDNA)
DNA 1: ACATCTAGTACATGTCTAGTCAGTATCTAGTGATTATCTAGACATACATCTAGTACATGTCTAGTCAGTATCTAGTGATTATCTAGACATGGACTCATCC
DNA 2: GGATGAGTCCATGTCTAGATAATCACTAGATACTGACTAGACATGTACTAGATGTATGTCTAGATAATCACTAGATACTGACTAGACATGTACTAGATGT
- binding result [1]: binds
- binding result [2]: binds
- binding result [3]: binds

B2: VACV-70mer-Biotin (dsDNA)
DNA 1: CCATCAGAAAGAGGTTTAATATTTTTGTGAGACCATCGAAGAGAGAAAGAGATAAAACTTTTTTACGACT
DNA 2: AGTCGTAAAAAAGTTTTATCTCTTTCTCTCTTCGATGGTCTCACAAAAATATTAAACCTCTTTCTGATGG
modifications: 3' TEG-biotin on forward strand
- binding result [4]: binds
- binding result [5]: binds

B3: VACV70mer dsDNA (dsDNA)
DNA 1: CCATCAGAAAGAGGTTTAATATTTTTGTGAGACCATCGAAGAGAGAAAGAGATAAAACTTTTTTACGACT
DNA 2: AGTCGTAAAAAAGTTTTATCTCTTTCTCTCTTCGATGGTCTCACAAAAATATTAAACCTCTTTCTGATGG
- binding result [6]: binds
- binding result [7]: binds
- binding result [8]: binds
